Measurements as given in publication PMC2748305.

How the values were obtained:
[1] = substrate: O=CN[C@H](CCC(=O)O)C(=O)O; assay: steady-state kinetics; assay type: biochemical, Bordetella bronchiseptica; settings: Zn2+; pH 7.5
[2] = substrate: O=C(O)CCC(=O)N[C@H](CCC(=O)O)C(=O)O; assay: steady-state kinetics; assay type: biochemical, Bordetella bronchiseptica; settings: Zn2+; pH 7.5

B1: Bb3285 (N-acyl-D-glutamate deacylase) (Bordetella bronchiseptica RB50) (protein)
chain: MQNAEKLDFKITGGWIIDGTGAPRRRADLGVRDGRIAAIGELGAHPARHAWDASGKIVAPGFIDVHGHDDLMFVEKPDLRWKTSQGITTVVVGNCGVSAAPAPLPGNTAAALALLGETPLFADVPAYFAALDAQRPMINVAALVGHANLRLAAMRDPQAAPTAAEQQAMQDMLQAALEAGAVGFSTGLAYQPGAVAQAAELEGLARVAAERRRLHTSHIRNEADGVEAAVEEVLAIGRGTGCATVVSHHKCMMPQNWGRSRATLANIDRAREQGVEVALDIYPYPGSSTILIPERAETIDDIRITWSTPHPECSGEYLADIAARWGCDKTTAARRLAPAGAIYFAMDEDEVKRIFQHPCCMVGSDGLPNDARPHPRLWGSFTRVLGRYVREARLMTLEQAVARMTALPARVFGFAERGVLQPGAWADVVVFDPDTVADRATWDEPTLASVGIAGVLVNGAEVFPQPPADGRPGQVLRAGA
- Km [1]: 380 ± 35 µM
- kcat [1]: 2200 ± 72 s⁻¹
- kcat/Km [2]: 96000 ± 35000 M⁻¹ s⁻¹
